Reference: the supplement of paper PMC7125110
± gives the standard error. This sample holds only a part of the variants without activity.

B1: glmS ribozyme (parent)
chain: AUAAAAGCGCCAGAACUACAGAAAUGUAGUUGACGAGGAGGAGGUUUAUCGAAUUUUCGGCGGAUGCCUCCAAA

Variants of: B1
Assay: self-cleavage kobs at 2500 uM GlcN6P; higher = faster cleavage; RNA array
Conditions: with glucosamine-6-phosphate
Method in brief: (§1)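 Barcoded glmS ribozyme variants on sequenced MiSeq chips were transcribed in situ by E. coli RNA polymerase and tracked through a hybridised Cy3 probe at 37 °C. Glucosamine-6-phosphate (40 μM to 10 mM) in HEPES/KCl/Mg(OAc)2 buffer was flowed in, and tiles were imaged over ~14 h. Signals were normalised to baseline and to non-cleaving reference variants; per-tile medians were fit to one- or two-exponential decays to give kobs. kcat and KM came from weighted Michaelis–Menten fits across concentrations.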

Point of comparison: AUAAAGUCGCCAGAACUACAGAAAUGUAGUUGACGAGGAGGAGGUUUAUCGAAUUUUCGGCGGAUGCCUGCAAA, “self-cleavage kobs at 2500 uM GlcN6P” value 5.26e-05 ± 2.1e-05 s⁻¹. Against it:
- AUAAAAAGCGCCAGAAUACAGAAAUGUAGUUGACGAGGAGCAGGUUUAUCGAAUUUUCGGCGGAUUCCUCCAAA — lower, < 1e-05 s⁻¹
- AUAAAGGCGCCAGAACUACAGAAAUGUAGUUGAUGCGGAGGAGGUUUAUCGAAUUUUCGGCGGAUGCCUCCAAA — lower, < 1e-05 s⁻¹
- AUAAAUGCGCGAGAACUACAGAAAUGUAGUUGACGAGGAGGAGCUUUAUCGAAUUUUCGGCGGAUGCGUCCAAA — lower, < 1e-05 s⁻¹
- AUAAAGGCGCCAGAACUACAGAAAUGUAGUUGACGAGGAGGAGGUUUAUCGAACUUUCGGCGCAUGCCUCCAAA — lower, < 1e-05 s⁻¹
- AUAAAGAUGCCAGAACUACAGAAAUGUAGUUGACGAGGAGGAGGUUUAUCGAAUUUUCGGUGGAUGCCUCCAAA — lower, < 1e-05 s⁻¹
- AUAAAUGCGCCAGAUCUACAGAAAUGUAGUUGACGAGGAGGAGGUUUAUCCAAUUUUCGGCGGAUGCCUCCAAA — lower, < 1e-05 s⁻¹
- AUAAAGGCGCCAGAACUACAGAAAUGUAGUUGACGAGGAGGAGAUUUAUCGUAUUUUCGGUAGAUGCCUGUAAA — lower, < 1e-05 s⁻¹
- AUAAAUGCGCCAGAACUACAGAAAUGUAGUUGACGAGGAGGAGGUUUAUCGAAUUUUGGGCGGAUGCCUACAAA — 3-fold higher, 0.00016 ± 5.2e-05 s⁻¹
- AUAAACGCGCCAGAACUACAGAAAUGUAGUUGACGAGGAGGAGGUUUAUCGAAUGUUCUGAGGCUGCCUCCAAA — lower, < 1e-05 s⁻¹
- AUAAAGGCGCCAGAAUUACAGAAAUGUAGUUGACGAGGACGAGGUAUAUCGAAUUUUCGGCGGAUUCCUCCAAA — lower, < 1e-05 s⁻¹
- AUAAAUGCGCCAGAACUACAGAAAUGUAAUUGACGAGGAGUAGGUUUAUCGAAUUUUCGGCGGACGCUUCCAAA — lower, < 1e-05 s⁻¹
- AUAAAGGCGCCAGAACUACAGAAAUGUAAUUGACGAGGAGGAGGUUUAUGGAAUUUUCGGCGGAUGCCUCCAAA — within error, 0.000103 ± 3.9e-05 s⁻¹
- AUAAAGGCGCCAGCACUACAGAAAUGUAGUUGACGAGCAGGAGGUUUAUCGAAUUUUCGGCGGAUGCCUCCAAA — lower, < 1e-05 s⁻¹
- AUAAACGCGCCACAACUACAGAAAUGUAGUUGACGAGGAGGAGGCUUAUCGAAUUUUCGGCGGAUGCCUCCAAA — lower, < 1e-05 s⁻¹
- AUAAAAAUGCCAGAACUACAGAAAUGUAGUUGACGGGGAGGAGGUUUAUCGAAUUUUCGUCGGAUGCCUCCAAA — lower, < 1e-05 s⁻¹
- AUAAAAACGCCGGAACUACAGAAAUGUAGUUGACGAGGAGGAGAUUGAUCGAAUUUUCGGCGGAUGCCUCCAAA — lower, < 1e-05 s⁻¹
- AUAAAUGCGCCAGAACUACAGAAAUGUAGUUGACGAGGAGGAGGUUUAUCGAUUUUUCGGCGUAUGCCUCCAAA — lower, < 1e-05 s⁻¹
- AUAAAUGCGCCAGAACUACAGAAAUGUAGUUGACGAGGAGGAGGGUUUUCGAAUUUUCGGCGGAUGCCUCCAAA — lower, < 1e-05 s⁻¹
- AUAAAUGCGUCAGAUCUACAGAAAUGUAGUUGACGAGGAGGAGGUUUAUCGAGUUUUCGGCGGAUGCCUCCAAA — lower, < 1e-05 s⁻¹
- AUAAAUGCGCCAGAACUACAGAAAUGUAGUUGACGAGGAGGAGUUAUAUCGUAUUGUUGGCGGAUGCCUUCAAA — lower, < 1e-05 s⁻¹
- AUAAAUGCGCCAGAACUACAGAAAUGUAGUUGACGAGGAGGAGGUUUAUCCAAUAUUCGGCGGAUACCUCCAAA — lower, < 1e-05 s⁻¹
- AUAAAGGCACCAGAACUACAGAAAUGUAGUUGACGAGAAGGAGGUUUGUCGAGUUUUCGGCGGAUGCCUCGAAA — lower, < 1e-05 s⁻¹
- AUAAAGGCGCCGGAACUACAGAAAUGUAGUUGACGAGGAGGAGGUUUAUCGAAGUUUCGGCGGUUGCCUGCAAA — lower, < 1e-05 s⁻¹
- AUAAAGGCGCCAGAACUACAGAAAUGUAGUUGACGAGGAGGAGGUUUAUCGAAUAUGCGGAGGAUGCCUCCAAA — lower, < 1e-05 s⁻¹
- AUAAACGCGCCAGAACUACAGAAAUGUACUUGACGAGGAGGAGGUUUAUCUAGUUUUCGGCGGAUGCCUCCAAA — lower, < 1e-05 s⁻¹
- AUAAAGGCGCCAGAACUACAGAAAUGUAGUUGACGAGGAGGAGGUUUAUCGCAUUUUCGGCGGAGGCCUCCAAA — lower, < 1e-05 s⁻¹
- AUAAAAACGCCAGAACUACAGAAAUGUAGUUGACGUGGAGGAGGUGUCUCGAAUUUUCGGCGGAUGCCUUGAAA — lower, < 1e-05 s⁻¹
- AUAAAUGCGCCAGAACUACAGAAAUGUAGUUGACGAGGAGGAAGUUUAUCCAAUUUUCGGCGGAUGCCUCCAAA — lower, < 1e-05 s⁻¹
- AUAAAAACGCCAGAACUACAGAAAUGUAGUUGACGAGGAGGAGGUUUAUCGAUUUUUCAGCGGAUGCCUUCAAA — lower, < 1e-05 s⁻¹
- AUAAAUGCGCUAGAACUACAGAAAUGUAGUUGAGGAGGAAGAGGUUUAUCGGAUUUUCGACGGAUGCCUCAAAA — lower, < 1e-05 s⁻¹
- AUAAAGGCCCCAGAACUACAGAAAUGUAGUUGUCGAGGAGGAGGUUUAUCGAAUUUUCGGCGGAUGCCUUCAAA — lower, < 1e-05 s⁻¹
- AUAAACGCGCCAGAACUACAGAAAUGUAGUUGACGAGGAGGAGGUUCAUCGAAUUUUCGGCGCAUGCCUCCAAA — lower, < 1e-05 s⁻¹
- AUAAAUGCGAGAGAACUACAGAAAUGUAGUUGACUAGGAGGAGGUUUAUCGAAUUUUCGGCGGAUGCCUCCAAA — lower, < 1e-05 s⁻¹
- AUAAAUGCGCCAGAACUACAGAAAUGUAGUUGACGAGCAGGAGGUUAGUCGAAUUUUCGGCGGAUACCGCCAAA — lower, < 1e-05 s⁻¹

Variants of: B1
Assay: self-cleavage kobs at 10000 uM GlcN6P; higher = faster cleavage; RNA array
Conditions: with glucosamine-6-phosphate
Method in brief: as §1

AUAAAGGCGCCAGAACUACAGAAAUGUAGUUGACGAGGAGGAGGUUUAUCGCAUUUUCGGCGGAGGCCUCCAAA and AUAAAUGCGCCAGAACUACAGAAAUGUAGUUGACGAGCAGGAGGUUAGUCGAAUUUUCGGCGGAUACCGCCAAA cannot be ordered by “self-cleavage kobs at 10000 uM GlcN6P” value: < 1e-05 s⁻¹ for the first, < 1e-05 s⁻¹ for the second.
